Experimental data published in the supplement of paper PMC7877785.
± gives the uncertainty stated by the source.

Experiment: self-splicing fitness, log relative to wild type (ln ratio); higher = more splicing; Tetrahymena group I intron in knt gene, E. coli kanamycin selection, DiMSum; sequences stand for … in CUCUCU…GGAGGGAAAAGUUAUCAGGCAUGCACCUGGUAGCUAGUCUUUAAACCAAUAGAUUGCAUCGGUUUAAAAGGCAAGACCGUCAAAUUGCGGGAAAGGGGUCAACAGCCGUUCAGUACCAAGUCUCAGGGGAAACUUUGAGAUGGCCUUGCAAAGGGUAUGGUAAUAAGCUGACGGACAUGGUCCUAACCACGCAGCCAAGUCCUAAGUCAACAGAUCUUCUGUUGAUAUGGAUGCAGUUCACAGACUAAAUGUCGGUCGGGGAAGAUGUAUUCUUCUCAUAAGAUAUAGUCGGACCUCUCCUUAAUGGGAGCUAGCGGAUGAAGUGAUGCAACACUGGAGCCGCUGGGAACUAAUUUGUAUGCGAAAGUAUAUUGAUUAGUUUUGGAGUACUCGUGGUCG
Procedure, shortened: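 Colonies from six replicate transformations of E. coli BL21(DE3) were pooled and amplicon-sequenced on an Illumina HiSeq 2500. The library placed an intron with all eight P1ex-region nucleotides randomised inside the knt kanamycin-resistance gene on pET-22b(+), and cells grew overnight at 37°C or 30°C on LB agar with or without 25 μg/mL kanamycin (plus 100 μg/mL carbenicillin, 50 μM IPTG, 0.2% rhamnose). Fitness is the DiMSum error-weighted combination of wild-type-normalised replicate fold changes, kanamycin versus none.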

| Sequence | self-splicing fitness (ln) (30 °C) | self-splicing fitness (ln) (37 °C) |
| --- | --- | --- |
| CAUUAGCAAUAUUACGAGAC | -3.15 ± 0.46 | -1.57 ± 0.42 |
| CAUUAGCAAUAUUACGAGAU | -4.04 ± 0.46 | -2.9 ± 0.24 |
| CAUUAGCAAUAUUACGAGCG | 0.0198 ± 0.086 | 0.256 ± 0.098 |
| CAUUAGCAAUAUUACGAGGG | -3.1 ± 0.18 | -2 ± 0.21 |
| CAUUAGCAAUAUUACGAGGU | -3.01 ± 0.27 | -2.66 ± 0.3 |
| CAUUAGCAAUAUUACGAUGG | -0.461 ± 0.076 | 0.0641 ± 0.083 |
| CAUUAGCAAUAUUACGAUUA | -1.47 ± 0.085 | -0.981 ± 0.081 |
| CAUUAGCAAUAUUACGCAAC | -2.14 ± 0.46 | -2.51 ± 0.3 |
| CAUUAGCAAUAUUACGCCGG | -0.963 ± 0.15 | 0.612 ± 0.24 |
| CAUUAGCAAUAUUACGCCUU | -3.03 ± 0.36 | -1.84 ± 0.21 |
| CAUUAGCAAUAUUACGCGCG | 0.0331 ± 0.12 | 0.0206 ± 0.13 |
| CAUUAGCAAUAUUACGCGGC | -3.98 ± 0.28 | -1.8 ± 0.28 |
| CAUUAGCAAUAUUACGCUAA | -2.7 ± 0.32 | – |
| CAUUAGCAAUAUUACGCUAG | -2.75 ± 0.28 | -0.852 ± 0.2 |
| CAUUAGCAAUAUUACGCUAU | -3.47 ± 0.3 | -2.99 ± 0.28 |
| CAUUAGCAAUAUUACGCUCA | -1.21 ± 0.07 | -0.215 ± 0.073 |
| CAUUAGCAAUAUUACGCUCG | -0.328 ± 0.11 | 0.302 ± 0.13 |
| CAUUAGCAAUAUUACGGAAU | -2.87 ± 0.29 | -2.61 ± 0.31 |
| CAUUAGCAAUAUUACGGACG | -0.114 ± 0.086 | 0.364 ± 0.11 |
| CAUUAGCAAUAUUACGGCAC | -4.19 ± 0.46 | -1.1 ± 0.17 |
| CAUUAGCAAUAUUACGGCGC | -2.01 ± 0.3 | -0.0545 ± 0.24 |
| CAUUAGCAAUAUUACGGGUA | -1.06 ± 0.11 | -0.972 ± 0.13 |
| CAUUAGCAAUAUUACGGUAU | – | -0.876 ± 0.12 |
| CAUUAGCAAUAUUACGGUUU | -3.82 ± 0.2 | -2.68 ± 0.2 |
| CAUUAGCAAUAUUACGUAGG | -0.646 ± 0.08 | -0.199 ± 0.11 |

| Sequence | self-splicing fitness (ln) (30 °C) | self-splicing fitness (ln) (37 °C) |
| --- | --- | --- |
| CAUUAGCAAUAUUACGUAUG | -3.57 ± 0.2 | -2.9 ± 0.3 |
| CAUUAGCAAUAUUACGUAUU | -4.04 ± 0.4 | -2.37 ± 0.27 |
| CAUUAGCAAUAUUACGUCCA | -3.34 ± 0.32 | -1.3 ± 0.28 |
| CAUUAGCAAUAUUACGUCUU | -3.25 ± 0.27 | -2.33 ± 0.21 |
| CAUUAGCAAUAUUACGUGUA | -2.78 ± 0.18 | -1.57 ± 0.11 |
| CAUUAGCAAUAUUACGUGUU | -3.38 ± 0.18 | -2.69 ± 0.2 |
| CAUUAGCAAUAUUACGUUAC | -3.48 ± 0.2 | -2.17 ± 0.25 |
| CCAAAGCAAUAUUACGAAGC | -3.15 ± 0.36 | – |
| CCAAAGCAAUAUUACGACAC | – | -3.02 ± 0.25 |
| CCAAAGCAAUAUUACGACGA | -3.11 ± 0.29 | -0.0538 ± 0.26 |
| CCAAAGCAAUAUUACGAGGA | -3.54 ± 0.17 | -2.79 ± 0.18 |
| CCAAAGCAAUAUUACGAGGC | -4.23 ± 0.27 | -2.46 ± 0.22 |
| CCAAAGCAAUAUUACGCACG | -0.44 ± 0.087 | -0.583 ± 0.11 |
| CCAAAGCAAUAUUACGCCGA | -2.83 ± 0.18 | -3.4 ± 0.23 |
| CCAAAGCAAUAUUACGCGCU | -3.57 ± 0.15 | -3.13 ± 0.17 |
| CCAAAGCAAUAUUACGCUAU | -3.7 ± 0.19 | -2.39 ± 0.23 |
| CCAAAGCAAUAUUACGCUCA | -3.2 ± 0.14 | -2.2 ± 0.16 |
| CCAAAGCAAUAUUACGGAUG | -1.44 ± 0.069 | -1.48 ± 0.1 |
| CCAAAGCAAUAUUACGUAAG | -0.334 ± 0.049 | 0.53 ± 0.071 |
| CCACAGCAAUAUUACGACUU | -4 ± 0.28 | -2.81 ± 0.27 |
| CCACAGCAAUAUUACGAGAG | -2.41 ± 0.067 | -1.25 ± 0.065 |
| CCACAGCAAUAUUACGAGGG | -3.22 ± 0.12 | -3.11 ± 0.22 |
| CCACAGCAAUAUUACGAUUA | -3.92 ± 0.18 | -2.11 ± 0.13 |
| CCACAGCAAUAUUACGAUUU | -4.23 ± 0.19 | -3.01 ± 0.17 |
| CCACAGCAAUAUUACGCAGU | -3.58 ± 0.15 | -2.92 ± 0.19 |

| Sequence | self-splicing fitness (ln) (30 °C) | self-splicing fitness (ln) (37 °C) |
| --- | --- | --- |
| CCACAGCAAUAUUACGCAUU | -3.53 ± 0.17 | -3.11 ± 0.16 |
| CCACAGCAAUAUUACGCCAG | -2.56 ± 0.15 | -1.07 ± 0.14 |
| CCACAGCAAUAUUACGCCCC | -2.07 ± 0.27 | -2.2 ± 0.4 |
| CCACAGCAAUAUUACGCCGG | -3.23 ± 0.18 | -2.2 ± 0.19 |
| CCACAGCAAUAUUACGCGGA | -3.84 ± 0.21 | -1.01 ± 0.11 |
| CCACAGCAAUAUUACGCGGU | -3.46 ± 0.17 | -1.94 ± 0.15 |
| CCACAGCAAUAUUACGCGUC | -3.13 ± 0.16 | -3.14 ± 0.27 |
| CCACAGCAAUAUUACGCGUG | -3.86 ± 0.18 | -2.38 ± 0.14 |
| CCACAGCAAUAUUACGGAAA | -3.47 ± 0.23 | -3.54 ± 0.29 |
| CCACAGCAAUAUUACGGACG | -0.832 ± 0.05 | -0.23 ± 0.066 |
| CCACAGCAAUAUUACGGAGA | -3.01 ± 0.21 | -1.77 ± 0.17 |
| CCACAGCAAUAUUACGGCUC | -3.39 ± 0.18 | -1.79 ± 0.16 |
| CCACAGCAAUAUUACGGGUU | -3.68 ± 0.16 | -2.58 ± 0.21 |
| CCACAGCAAUAUUACGGUAC | -4.19 ± 0.19 | -2.55 ± 0.18 |
| CCACAGCAAUAUUACGGUUG | -1.72 ± 0.047 | -0.701 ± 0.058 |
| CCACAGCAAUAUUACGUACG | -0.647 ± 0.047 | -0.02 ± 0.063 |
| CCACAGCAAUAUUACGUCUG | -3.12 ± 0.088 | -1.98 ± 0.083 |
| CCACAGCAAUAUUACGUGAC | -3.38 ± 0.16 | -2.01 ± 0.13 |
| CCACAGCAAUAUUACGUGCC | -1.6 ± 0.15 | -2.36 ± 0.21 |
| CCACAGCAAUAUUACGUUCG | -1.21 ± 0.048 | -0.208 ± 0.069 |
| CCAGAGCAAUAUUACGAACG | -0.512 ± 0.081 | 0.191 ± 0.1 |
| CCAGAGCAAUAUUACGAAGU | -4.41 ± 0.46 | -2.8 ± 0.34 |
| CCAGAGCAAUAUUACGAAUU | -4 ± 0.28 | -3.11 ± 0.43 |
| CCAGAGCAAUAUUACGAGAG | -2.95 ± 0.21 | -1.39 ± 0.23 |
| CCAGAGCAAUAUUACGAGCG | -0.698 ± 0.084 | -0.775 ± 0.14 |

| Sequence | self-splicing fitness (ln) (30 °C) | self-splicing fitness (ln) (37 °C) |
| --- | --- | --- |
| CCAGAGCAAUAUUACGAUAA | -3.17 ± 0.29 | -2.04 ± 0.2 |
| CCAGAGCAAUAUUACGAUGC | -3.48 ± 0.34 | -2.78 ± 0.29 |
| CCAGAGCAAUAUUACGCAAG | -2.15 ± 0.19 | -2.33 ± 0.29 |
| CCAGAGCAAUAUUACGCAGA | -2.8 ± 0.19 | -2.84 ± 0.44 |
| CCAGAGCAAUAUUACGCCAC | -3.59 ± 0.26 | -2.28 ± 0.24 |
| CCAGAGCAAUAUUACGCCAU | -2.03 ± 0.19 | -2.75 ± 0.27 |
| CCAGAGCAAUAUUACGCGAA | -4.06 ± 0.4 | -2.15 ± 0.29 |
| CCAGAGCAAUAUUACGCGGG | -3.33 ± 0.44 | – |
| CCAGAGCAAUAUUACGCUUC | -3.48 ± 0.42 | – |
| CCAGAGCAAUAUUACGGAAC | -2.32 ± 0.2 | -3.08 ± 0.36 |
| CCAGAGCAAUAUUACGGACA | -3.25 ± 0.44 | – |
| CCAGAGCAAUAUUACGGCUU | -3.75 ± 0.28 | -1.8 ± 0.2 |
| CCAGAGCAAUAUUACGGGCA | -2.92 ± 0.28 | -2.64 ± 0.38 |
| CCAGAGCAAUAUUACGUAAC | -3.56 ± 0.37 | -1.96 ± 0.32 |
| CCAGAGCAAUAUUACGUCGA | -3.92 ± 0.18 | -3.12 ± 0.17 |
| CCAGAGCAAUAUUACGUGAA | -3.7 ± 0.16 | -2.32 ± 0.18 |
| CCAGAGCAAUAUUACGUGUA | -3.22 ± 0.21 | -2.08 ± 0.23 |
| CCAGAGCAAUAUUACGUGUU | -3.64 ± 0.16 | -2.88 ± 0.17 |
| CCAGAGCAAUAUUACGUUAU | -3.68 ± 0.24 | -2.2 ± 0.2 |
| CCAGAGCAAUAUUACGUUGG | -3.93 ± 0.23 | -2.57 ± 0.23 |
| CCAUAGCAAUAUUACGGAAA | -2.94 ± 0.41 | -2.36 ± 0.34 |
| CCAUAGCAAUAUUACGGAGG | -3.57 ± 0.21 | -0.997 ± 0.15 |
